Experimental data published in publication PMC5142293, “Characterization of spermidine hydroxycinnamoyl transferases from eggplant (Solanum melongena L.) and its wild relative Solanum richardii Dunal” (Horticulture Research, 2016).
Numbering of substitutions follows the chain as printed. In names and notes the source's numbering stands.

Columns and labels:
Test in all cases: spectrophotometric acylation assay, microplate (absorbance loss of CoA ester)
Settings in all cases: 2.5 mM polyamine acceptor (text b49: spermidine; table title and b21: spermine), pH 9.0, 30 °C, Tris-HCl, 10 mM EDTA
[1] = substrate: COc1cc(/C=C/C(=O)SCCNC(=O)CCNC(=O)[C@H](O)C(C)(C)COP(=O)(O)OP(=O)(O)OC[C@H]2O[C@@H](n3cnc4c(N)ncnc43)[C@H](O)[C@@H]2OP(=O)(O)O)ccc1O; assay type: biochemical, Solanum virginianum
From the text: (§1) spectrophotometric acylation assay, microplate (absorbance loss of CoA ester) on SmSHT

[2] = substrate: CC(C)(COP(=O)(O)OP(=O)(O)OC[C@H]1O[C@@H](n2cnc3c(N)ncnc32)[C@H](O)[C@@H]1OP(=O)(O)O)[C@@H](O)C(=O)NCCC(=O)NCCSC(=O)/C=C/c1ccc(O)c(O)c1; assay type: biochemical, Solanum virginianum
From the text: as §1

[3] = substrate: CC(C)(COP(=O)(O)OP(=O)(O)OC[C@H]1O[C@@H](n2cnc3c(N)ncnc32)[C@H](O)[C@@H]1OP(=O)(O)O)[C@@H](O)C(=O)NCCC(=O)NCCSC(=O)/C=C/c1ccc(O)cc1; assay type: biochemical, Solanum virginianum
From the text: as §1

[4] = substrate: COc1cc(/C=C/C(=O)SCCNC(=O)CCNC(=O)[C@H](O)C(C)(C)COP(=O)(O)OP(=O)(O)OC[C@H]2O[C@@H](n3cnc4c(N)ncnc43)[C@H](O)[C@@H]2OP(=O)(O)O)ccc1O; assay type: biochemical, Solanum richardii
From the text: (§2) spectrophotometric acylation assay, microplate (absorbance loss of CoA ester) on SrSHT

[5] = substrate: CC(C)(COP(=O)(O)OP(=O)(O)OC[C@H]1O[C@@H](n2cnc3c(N)ncnc32)[C@H](O)[C@@H]1OP(=O)(O)O)[C@@H](O)C(=O)NCCC(=O)NCCSC(=O)/C=C/c1ccc(O)c(O)c1; assay type: biochemical, Solanum richardii
From the text: as §2

[6] = substrate: CC(C)(COP(=O)(O)OP(=O)(O)OC[C@H]1O[C@@H](n2cnc3c(N)ncnc32)[C@H](O)[C@@H]1OP(=O)(O)O)[C@@H](O)C(=O)NCCC(=O)NCCSC(=O)/C=C/c1ccc(O)cc1; assay type: biochemical, Solanum richardii
From the text: as §2

B1: SmSHT (Solanum virginianum) (protein)
chain: MKVILKNHWVVKPAAPTWTGTVSLSEFDQTFAVTHVPTIYYYKFVQDFITSTDEIIKTLKTSLSEALVHFYPLAGRLRWISGSRLELECDASGVVLTEAETDAKLDDLDSFLLSPNYNSLFPRVDYTIPIDELPLLFVQLTKFQCGGIALSFAISHAVVDGHSALYFFSEWARLSRGEPLMFAPFHDRKVLRAGEPAIACPTFEHLQFNTPPLLIGKSSTENEKKKETKGSMLKLTKLQVEMLREKANQGRNLEDSRERSYTRYEVVTAHIWRCACKARGHKFEQPTNLCICVDIRRRMDPPLPSSYFGNAIVDVIATGASGDIVLSPLECAAKRVREAIKMVTSDYANSTINFLKKEEDLSKYQDIHAFRNKEGPFYGNPNLGVISWISLPVLGLDFGWGKEFHMSPGIHEYDGDCVILPDNEGDGSLTVAIVLQEAHVDAFKKFFYEDIEC
notes: full-length ORF, 453 residues, pET-32a(+) N-terminal His-tag (73 kDa with tag, 51 kDa predicted), E. coli, Ni-NTA purified
[1]
  Km: 27.3 ± 5.6 µM
  kcat: 3.87 ± 0.205 s⁻¹
  kcat/Km: 142000 ± 8330 M⁻¹ s⁻¹
[2]
  Km: 58.3 ± 1.7 µM
  kcat: 7.36 ± 0.185 s⁻¹
  kcat/Km: 127000 ± 3330 M⁻¹ s⁻¹
[3]
  Km: 29.6 ± 5.8 µM
  kcat: 3.02 ± 0.122 s⁻¹
  kcat/Km: 102000 ± 3330 M⁻¹ s⁻¹

B2: SrSHT (Solanum richardii) (protein)
chain: B1 chain with C200S, P286S, R297K, L326S, K402E
notes: full-length ORF, 453 residues, pET-32a(+) N-terminal His-tag (73 kDa with tag, 51 kDa predicted), E. coli, Ni-NTA purified; natural ortholog differing from SmSHT by C200S, P286S, R297K, L326S, K402E
[4]
  Km: 51.3 ± 10.6 µM
  kcat: 6.88 ± 1 s⁻¹
  kcat/Km: 133000 ± 20000 M⁻¹ s⁻¹
[5]
  Km: 67.1 ± 7.6 µM
  kcat: 10.1 ± 0.483 s⁻¹
  kcat/Km: 150000 ± 6670 M⁻¹ s⁻¹
[6]
  Km: 38.4 ± 3.3 µM
  kcat: 4.33 ± 0.243 s⁻¹
  kcat/Km: 113000 ± 6670 M⁻¹ s⁻¹
